# Measured values reported in patent US20260308269 (published 2026).
# Like-named read-outs stand apart in the source and are kept apart here.
# T1: human TfR apical domain (human)
# T1 chain: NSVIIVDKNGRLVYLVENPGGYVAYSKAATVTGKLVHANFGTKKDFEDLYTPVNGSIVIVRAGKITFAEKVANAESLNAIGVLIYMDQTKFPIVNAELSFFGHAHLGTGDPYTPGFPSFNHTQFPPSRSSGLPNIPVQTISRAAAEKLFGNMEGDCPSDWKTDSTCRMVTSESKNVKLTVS
# What was measured:
# Experiment in all cases: SPR
# human TfR apical domain [1] = target: T1, human TfR apical domain
# human TfR apical domain [2] = target: T1, human TfR apical domain
# human TfR apical domain [3] = target: T1, human TfR apical domain
binder,measurement,setting,value
TV35.d1.9 (protein) PCPAPEAAGGPSVFLFPPKPKDTLMISRTPEVTCVVVDVSHEDPEVKFNWYVDGVEVHNAKTKPREEQYNSTYRVVSVLTVLHQDWLNGKEYKCKVSNKALGAPIEKTISKAKGQPREPQVYTLPPSRDELTKNQVSLWCLVKGFYPSDIAVEWESYGTEWTNYKTTPPVLDSDGSFFLYSKLTVTKSEWQQGFVFSCSVMHEALHNHYTQKSLSLSPGK,Kd,human TfR apical domain [1],8400 nM
same,Kd,human TfR apical domain [2],8000 nM
CH3C.35.23.4 (protein) PCPAPELLGGPSVFLFPPKPKDTLMISRTPEVTCVVVDVSHEDPEVKFNWYVDGVEVHNAKTKPREEQYNSTYRVVSVLTVLHQDWLNGKEYKCKVSNKALPAPIEKTISKAKGQPREPQVYTLPPSRDELTKNQVSLWCLVKGFYPSDIAVEWESYGTEWSNYKTTPPVLDSDGSFFLYSKLTVSKEEWQQGFVFSCSVMHEALHNHYTQKSLSLSPGK,Kd,human TfR apical domain [2],620 nM
TV35.d1.10 (protein) PCPAPEAAGGPSVFLFPPKPKDTLMISRTPEVTCVVVDVSHEDPEVKFNWYVDGVEVHNAKTKPREEQYNSTYRVVSVLTVLHQDWLNGKEYKCKVSNKALGAPIEKTISKAKGQPREPQVYTLPPSRDELTKNQVSLWCLVKGFYPSDIAVEWESYGTEWVNYKTTPPVLDSDGSFFLYSKLTVTKSEWQQGFVFSCSVMHEALHNHYTQKSLSLSPGK,Kd,human TfR apical domain [1],2500 nM
same,Kd,human TfR apical domain [2],2500 nM
6.5.11.5.42.2 (TV42.2) (protein) APELLGGPSVFLFPPKPKDTLMISRTPEVTCVVVDVSHEDPEVKFNWYVDGVEVHNAKTKPREEQYNSTYRVVSVLTVLHQDWLNGKEYKCKVSNKALPAPIEKTISKAKGQPREPQVYTLPPSRDELTKNQVSLTCLVKGFYPSDIAVEWFSDGSKETNYKTTPPVLDSDGSFFLYSKLTVDKSRWQQGNLFACEVMHEALHNHYTYKLLSLSPGK,Kd,human TfR apical domain [3],650 nM
same,Kd,human TfR apical domain [2],650 nM
42.8.143 (protein) APELLGGPSVFLFPPKPKDTLMISRTPEVTCVVVDVSHEDPEVKFNWYVDGVEVHNAKTKPREEQYNSTYRVVSVLTVLHQDWLNGKEYKCKVSNKALPAPIEKTISKAKGQPREPQVYTLPPSRDELTKNQVSLTCLVKGFYPSDIAVEWFYGDSKLTNYKTTPPVLDSDGSFFLYSKLTVDKSRWQQGNLFACEVMHEALHNHYTYKLLSLSPGK,Kd,human TfR apical domain [2],450 nM
